From patent publication US20210371505A1

Experiments:
Assay in all cases: cell-based or functional assay
[1] = biological target: Hemagglutinin of influenza virus A/Philippines/01/1982 (H3N2) (Influenza A virus A/Philippines/01/1982 (H3N2))
[2] = biological target: Hemagglutinin of influenza virus A/Aichi/02/1968-PR8-X31 (H3N2) (Influenza A virus A/Aichi/02/1968-PR8-X31 (H3N2)) (UniProt P03437)
[3] = biological target: Hemagglutinin of influenza virus A/Shanghai/01/2013-PR8 (H7N9) (Influenza A virus A/Shanghai/01/2013-PR8 (H7N9))

## Irrelevant/negative hIgG1 control (antibody)
[1]
  IC50 of neutralization, cell viability microneutralization assay on MDCK cells: > 3.33 µM
[2]
  IC50 of neutralization, cell viability microneutralization assay on MDCK cells: > 0.833 µM
[3]
  IC50 of neutralization, cell viability microneutralization assay on MDCK cells: > 6.67 µM
